In general, stoichiometry N refers to a count of units in the complex or per binding partner.

This data set deals with the molecule itself. The experiment in a line: SEC; Superdex 200 Increase 10/300 GL, 50 mM K4P2O7 buffer pH 8.6, 0.5 ml/min, 4 °C; size judged against standard peaks (158 kDa and 44 kDa) and the 53 kDa monomer band on reducing SDS-PAGE.

B1: 6xHis-tagged recombinant human GABA transaminase (GABA-T) (enzyme)
chain: not shown
notes: human GABA transaminase (GABA-T; EC 2.6.1.19) encoded by the ABAT gene; The band on reducing SDS-PAGE was 53 kDa; The purification tag was not removed; also called γ-aminobutyric acid transaminase; 4-aminobutyrate transaminase; source: Expi293F cells, transiently transfected, purified (Ni-NTA, size-exclusion chromatography); not shown: Avi-tag (preceded by an HRV 3C protease site), C-terminal, …
Take B1: the “stoichiometry N” value is 2.

The values above are taken from PMC8439235, “High-yield synthesis and purification of recombinant human GABA transaminase for high-throughput screening assays” (Journal of Enzyme Inhibition and Medicinal Chemistry, 2021).
